Measurements reported in patent publication US20160310575A1.

Key:
Test in all cases: cell-based or functional assay
human GIP-R (human) = human GIP-R (human) (UniProt P48546)
human GLP-R (human) = human GLP-R (human) (UniProt P43220)
human GCG-R (human) = human GCG-R (human) (UniProt P47871)
Sequence of human GCG-R (human) (P47871 26-477): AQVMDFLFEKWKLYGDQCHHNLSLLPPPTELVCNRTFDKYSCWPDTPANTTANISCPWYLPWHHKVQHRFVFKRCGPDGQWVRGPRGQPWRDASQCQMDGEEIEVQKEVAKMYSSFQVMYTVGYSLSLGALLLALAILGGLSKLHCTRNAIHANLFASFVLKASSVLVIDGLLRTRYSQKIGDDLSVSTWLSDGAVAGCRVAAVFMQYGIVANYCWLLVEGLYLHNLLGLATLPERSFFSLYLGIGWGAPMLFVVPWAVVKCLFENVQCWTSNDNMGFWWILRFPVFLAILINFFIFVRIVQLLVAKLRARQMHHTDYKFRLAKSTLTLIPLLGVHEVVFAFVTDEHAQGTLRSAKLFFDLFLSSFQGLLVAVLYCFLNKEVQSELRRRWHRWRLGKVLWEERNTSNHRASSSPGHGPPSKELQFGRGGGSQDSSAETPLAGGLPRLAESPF

Sequence of human GIP-R (human) (P48546 22-466): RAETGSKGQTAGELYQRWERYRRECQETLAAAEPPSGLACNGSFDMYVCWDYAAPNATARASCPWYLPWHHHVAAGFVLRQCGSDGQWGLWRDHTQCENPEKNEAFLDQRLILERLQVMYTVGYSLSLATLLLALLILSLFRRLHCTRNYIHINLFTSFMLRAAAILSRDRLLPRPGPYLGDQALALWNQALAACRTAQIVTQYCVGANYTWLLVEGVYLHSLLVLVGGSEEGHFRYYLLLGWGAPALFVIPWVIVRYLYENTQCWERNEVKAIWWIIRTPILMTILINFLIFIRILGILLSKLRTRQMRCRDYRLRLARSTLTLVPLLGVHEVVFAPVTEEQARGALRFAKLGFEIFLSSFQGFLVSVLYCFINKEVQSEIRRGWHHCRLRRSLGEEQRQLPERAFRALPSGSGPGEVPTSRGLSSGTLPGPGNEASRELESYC
Sequence of Dulaglutide (Fc fusion) (chain): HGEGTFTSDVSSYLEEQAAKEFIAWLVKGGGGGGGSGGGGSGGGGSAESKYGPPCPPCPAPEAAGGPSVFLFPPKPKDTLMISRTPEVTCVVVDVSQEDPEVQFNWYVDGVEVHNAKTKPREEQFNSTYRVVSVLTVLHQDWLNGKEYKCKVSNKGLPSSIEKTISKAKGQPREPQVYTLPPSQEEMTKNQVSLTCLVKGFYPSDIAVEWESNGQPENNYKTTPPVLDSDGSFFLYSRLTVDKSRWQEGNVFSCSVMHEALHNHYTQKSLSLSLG
Sequence of human GLP-R (human) (P43220 24-463): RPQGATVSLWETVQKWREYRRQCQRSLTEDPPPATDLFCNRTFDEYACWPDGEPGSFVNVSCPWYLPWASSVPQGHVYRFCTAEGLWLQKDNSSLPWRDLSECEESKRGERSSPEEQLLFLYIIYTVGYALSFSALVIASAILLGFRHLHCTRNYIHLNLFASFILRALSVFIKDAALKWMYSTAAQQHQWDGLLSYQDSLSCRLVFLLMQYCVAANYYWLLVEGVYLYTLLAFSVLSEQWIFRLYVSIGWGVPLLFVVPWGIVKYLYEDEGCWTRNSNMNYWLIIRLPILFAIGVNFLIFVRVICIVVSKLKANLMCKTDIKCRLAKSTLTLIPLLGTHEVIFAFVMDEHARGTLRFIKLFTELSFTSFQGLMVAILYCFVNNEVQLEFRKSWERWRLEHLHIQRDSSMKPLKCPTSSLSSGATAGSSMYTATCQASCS

% max GIP, human GIP-R (cAMP assay) (human GIP-R (human))	EC50 [nM], human GIP-R (cAMP assay) (human GIP-R (human))	% max GLP-1, human GLP-R (cAMP assay) (human GLP-R (human))	EC50 [nM], human GLP-R (cAMP assay) (human GLP-R (human))	% max GCG, human GCG-R (cAMP assay) (human GCG-R (human))	EC50 [nM], human GCG-R (cAMP assay) (human GCG-R (human))	EC50 [nM], GIP-R (cAMP assay) (human GIP-R (human))	EC50 [nM], GLP1-R (cAMP assay) (human GLP-R (human))	Substance
13.8%	> 600 nM	98.2%	0.129 nM	1.6%	> 600 nM			Dulaglutide (Fc fusion)
						> 600 nM	> 600 nM	G3Fc only (from UniProt P0DOX5 223-449)
